Test results from the DeepSol protein solubility set.

experiment: soluble on expression in E. coli; label from the status in PepcDB or PDB records

| Sequence | soluble on expression in E. coli |
| --- | --- |
| MGSDKIHHHHHHMDLKEKILDYKDEVVKEIQNAVRVKSVKEAPLPGMPFGEGPAKALDHFMDLAKKLGFKAEKFDNYAMHIDMGEGKETLGILAHVDVVPEGDNWTYPPYSGTIADGKIFGRGTLDDKGPAIISLFAMKAIADSGVKLNKKIRMILGADEESGSACLKYYFGELKMPYPDIAFTPDSSFPVTYAEKGSVRVKIKKKFNTLQDLVIKGGNAFNSVPNEANGVIPVDMLGEVRNKNKVEFEREGNTYKVFSAGIPAHGAYPSKGYNAVSALFEVLKDIEVKNEELKGLVTFFDKFVKMETDGKSFGVKCTDGETGELTLNLGKINLENNELEIWIDMRIPVKVKNEQIIETIKENTEDYGYEFLLHSNTQPLYVAKDSFLVSTLMNIYKELTGDNDAEPVAIGGGTYAKYAKNAVAFGALLPDQEDRMHQRDEYLEISKIDKLLQIYVEAIYRLAK | not soluble |
| MATKITINVTNNSTSTQNFFFFQQPAVYSGGPKVYTNSLYSQTLLPYATSGSVLSFTMILQYYAGVQQQVDPPQIGQPSGQLGAIQPIELTPASGGTPTKNTTNMTVDPSLGLSVPVSTDGPQAGSFRIVTPVYDPVLMNYSAGSAVQSLTGAITLSNFVTAQPNTNLDCQPIIKFYVQTGTYTAGTVMNFTSSSVGAALCDATPGFTTFNVSYNPNGTWTVKNMALSQLANGSRGLLEKSSFTTELNAAAQIAEVLNEAGTAVVSTGLAANFLRPVTVTNLTAPGAIIRNRDYQVGPVDGRHLGLTCTDVAGNTAVFD | not soluble |
| GSFTRFDLAIDDKKTYFSIPELLKKAQKGECISRFRKSDFNGSFDLSDGITGGTTIYFGSKKSEAYLCFYEKNYEQAEKYNIPLEELGDWNRYELRLKNERAQVAIDALLKTKDLTLIAMQIINNYVRFVDADENITREHWKTSLFWSDFIGDVGRLPLYVKPQKDFYQKSRNWLRNSCAPTMKMVLEADEHLGKTDLSDMIAEAELADKHKKMLDVYMADVADMVV | not soluble |
| AHHHHHHGSGDNRKVRVVVGGVFDILHVGHVHFLKMAKELGDELIVIVAHDETVKRRKGRPPINPAEDRAELLKSIRYVDDVVIGEPGEISIDLIKRLKPDVIALGPDQDFSCEELKKRLRKEGINAEVIRLPYLYKSDRAKTSKIIQRIIETFCE | not soluble |
| MRLDKYLSKSLHISRKEAKELIREGRVKVSGKVVKQAEYRVKEGEEVEVEGKSVKPKKNVYLMLYKPKGYLSTTEEDKKYPSFLELIREHFPSRKLFSAGRLDVDAEGLLLITDDGELAHRLTHPKWKVEKEYIVRLDRDIGDEELKKLYEVKLEEKPVQLVKAEKLSGDTVKAILTEGRHHVVKRLFKAVGHNVVYLKRTRVGNLRLDENMEPGEWRELTEEEVKELKRLVKYNPQN | soluble |
| MYNVMITGAGKIGSLIACLLADSGSYQVHLADLEFNGSDVTRLLTALPEIKTVALDVKDEQSTQAYLQKHNIIAVISSLPYFLNTHVAKAAKAAKAHYFDLTEDTSVTEAVKAIAQNAETAFVPQCGLAPGFISIAANSLMQEFEKCHHARLRVGALPQRANNALHYSLTWSTDG | not soluble |
| MSLGYATAHRRVRHLSADQVITRPETLAVEEPLEIRVNGTPVTVTMRTPGSDFELVQGFLLAEGVVAHREDVLTVSYCGRRVEGNATGASTYNVLDVALAPGVKPPDVDVTRTFYTTSSCGVCGKASLQAVSQVSRFAPGGDPATVAADTLKAMPDQLRRAQKVFARTGGLHAAALFGVDGAMLAVREDIGRHNAVDKVIGWAFERDRIPLGASVLLVSGRASFELTQKALMAGIPVLAAVSAPSSLAVSLADASGITLVAFLRGDSMNVYTRADRITEGHHHHHH | soluble |
| MKVILVNGSPHKDGCTFTALEEVAKALNEEGIDTEFFHLGTKPLNGCIACGHCRKHQRCVFPDSVNEFLDLAQEADGFIFGSPVHYAAAGGAITSFLDRVFYTDSGSGKQAFYLKPAAAVVSARRAGTTASLDQLNRYFTIKEMPIISSKYWNMVHGNTPEEVRKDEEGLQIMRTLGRNMAWFLKCKEAGIRAGIPFPSQEEGLRTNFIRLEHHHHHH | soluble |
| MLTVTFTVSNTGDRAGAAVPQVYPGFPNTTIDRCVRELKAFRRVELEPGQRQTVTVALTRRDLSYWDILPHPLRSYAVGSILEHHHHHH | not soluble |
| MSLSTVTMILGQSGTGKSTSLRNLDPSQTLLIQAIKKPLPFKSGNWKPANKENPAGSIFVCDSAATIVGAMKRTKRPVIVIDDFQYVMANEFMRRSAEKGFDKFTEIGRNAWDILVEAARLPDEVRVYVLSHVETTDDGRTKIKTIGRMLDEKITLEGMVSIVLKTVVQDGQHFFATRNNGSDTVKTPMGMFDADLIENDLAAVDTAIYQYYGLTEAEGHHHHHH | not soluble |
| MAHHHHHHMLRFTVPALVVFQNAYAPRVLNRMTPDRMELTMLILKERKKKVRYLGSNFQGFNDRVHLFNAQGGVRRGTRYIIETHHNRIQFKHRSRNNSMVDVRAVKMAGSQYDSIGNYTRMTWDNSLCTTNLLSDPNFKRHFKNMPKEETIGVLEEWGVRYILLDEIRKP | not soluble |
| MSLDKEYRITLLHNVAHYGHAEATRILLAAGARVNAVNGEGNTPLFAAVHEGHDDVARILLDAGADVTIANSYWYTPLREACRRGNTGMVRLLLEKGADVNITDNKGFTPLHAAVSAEALEAATLILDSGADINIAGRYGDTPLHYAVGLGYEEFVRLFLARGADPTIRNDRGLTPRQLAEERGFASIVELFRNWGKNTEGHHHHHH | soluble |
| MGSDKIHHHHHHMQDLLRWKNSKHRKPLILKGVRQVGKTWLLKEFARRYYNNLAYFNFDEHPEYKQFFENTKDVERILQNLMMASGQIINPKEPGTTLIVFDEIQECPNALNTLKYFCENTPHYHVACAGSLLGIALSKPASFPVGKVDFLEIGPMTFTEFLLANGDGNFVSYLDNLDRIEPIPDAFFNPLYEKLKMYFVTGGMPESVRSWTEERDVELVQQVLANILGAYERDFAKHPDPKDFPKISLIWKSLPSQLARENKKFIYKVVKEGARAREYEEALQWLCDASLAYKIYRSSAPGLPISAYDDLAAFKLYLVDVGLLRRLSLLAPSAFGEGNRLFVEFKGALSENYVLQALRNQLEAMPRYWTMDNPRHEVDFLIQRENEIIPVEVKSETNVESRSLKKFKEKYGDKVKLRVRFSLNNLRLDGDLLNIPLFITDYADKLIGMALTDQPKE | not soluble |
| MGSDKIHHHHHHMSSHQPAPPARPTNKVFIIGLPRTGTTSVSVALLEMGLRVAHQAFTKQAVILADAISDAPCFSDYRQLHSLYPDAKFIYLDRPLDAWVPSMQMLLSRMLVHLDKERGRFHPLLKRSFGHTFGIYRVADPMDAEHLKTCYQVHKQQVFDYFHQDQGLAQQFLSLQLDDPQSLPRLANFIGLDAQVDSPQLAFPHLNRGRNVASWDEYKHELKISSNLAGPENRKYFNYKI | not soluble |
| GYTLWNDQIVKDEEVKIDKEDRGYQFGDGVYEVVKVYNGEMFTVNEHIDRLYASAEKIRITIPYTKDKFHQLLHELVEKNELNTGHIYFQVTRGTSPRAHQFPENTVKPVIIGYTKENPRPLENLEKGVKATFVEDIRWLRCDIKSLNLLGAVLAKQEAHEKGCYEAILHRNNTVTEGSSSNVFGIKDGILYTHPANNMIAKGITRDVVIACANEINMPVKEIPFTTHEALKMDELFVTSTTSEITPVIEIDGKLIRDGKVGEWTRKLQKQFETKIPKPLHI | soluble |
| MGSDKIHHHHHHMRPTQKGDYLNPMSDLFQDYSEAAARSGAYDEMFAQGHVARRSYGQVSGALRELSLADVTARADSMARTFLDRGVTFDYAGEERPFPLDIVPRVIPADEWNVLERGVAQRVKALEAFLNDVYGRMAVVTDGVIPRQLVTTSAHFHRAVHGFEPSGGVRVHVSGIDVVRDAAGTFRVLEDNVRVPSGVSYVLENRRAMAKGLPEAFGQQHIRPVEEYPRRLLSALRKTAPAGVDDPTVVVLTPGVFNSAYFEHTLLAGLMGVELVEGRDLICRGNRVYMRTTAGEQRVDVIYKRIDDDFLDPLQFRSDSMLGCPGLVNAARAGGVTIANAVGNGVADDKLVYSYVPDLIRYYLHEEPIIANVDTFRLEEKEAREHVLDRLDELVVKPVDGSGGKGLVIGPDATKDELDALRKRVIADPRGWIAQPVLQLSTVPTLSGDKFGPRHVDLRPFAVNDGDDVWVLPGGLTRVALKEGSLIVNSSQGGGSKDTWVLADSPQLPAEIIPRQSVTVREQVSVWPVESNWRDRQTEQQQ | not soluble |
